Test results published in paper PMC4933562, “Bile salt receptor complex activates a pathogenic type III secretion system” (eLife, 2016).

Tests used:
[1] = target: N-terminal His-tagged VtrC periplasmic domain (aa 31-161) (Vibrio parahaemolyticus); assay: SEC
VtrC (VPA1333) = target: T1, VtrC (VPA1333) (Vibrio parahaemolyticus, UniProt Q87GI3+Q87GI4); assay: ITC (n = […]) and […] Å co-crystal structure; assay type: binding
T1 construct: periplasmic domains: VtrC aa 31–161 (N-terminal His-tagged) co-expressed with VtrA aa 161–253; with VtrA (VPA1332), periplasmic domain aa 161–253, obligate 1:1 heterodimer

Compound	stoichiometry N (VtrA per VtrC) [1]	Kd (VtrC (VPA1333)) [nM]
VtrA periplasmic domain (aa 161-253), co-expressed with VtrC (domain or fragment)	1	
C[C@H](CCC(=O)NCCS(=O)(=O)O)[C@H]1CC[C@H]2[C@@H]3CC[C@@H]4C[C@H](O)CC[C@]4(C)[C@H]3C[C@H](O)[C@]12C [TDC, taurodeoxycholate]		315
